Changes are numbered by the printed parent chain. Names may count otherwise.
B1: huMov19 (antibody, human IgG1, kappa, V domains shown)
VH: QVQLVQSGAEVVKPGASVKISCKASGYTFTGYFMNWVKQSPGQSLEWIGRIHPYDGDTFYNQKFQGKATLTVDKSSNTAHMELLSLTSEDFAVYYCTRYDGSRAMDYWGQGTTVTVSS
VL: DIVLTQSPLSLAVSLGQPAIISCKASQSVSFAGTSLMHWYHQKPGQQPRLLIYRASNLEAGVPDRFSGSGSKTDFTLTISPVEAEDAATYYCQQSREYPYTFGGGTKLEIKR
notes: the full chains labelled huMov19 HC (55) and huMov19 LCv1.60 (57) are used; also called M9346A; antibody of IMGN853
B2: muFRIHC2-1 (anti-FOLR1 antibody 353.2-1, ATCC PTA-120197) (antibody, mouse IgG1, kappa, V domains shown)
VH: QVQLQQSGPELVKPGASVRISCKASGYTFTNSYIHWVKKRPGQGLEWIGWIYPESLNTQYNEKFKAKATLTADKSSSTSYMQLSSLTSEDSAVYFCARRGIYYYSPYALDHWGQGASVTVSS
VL: DVVLTQTPLSLPVNIGDQASISCKSSKSLLNSDGFTYLDWYLQKPGQSPQLLIYLVSNHFSGVPDRFSGSGSGTDFTLKISRVEAEDLGVYYCFQSNYLPLTFGGGTKLEIKR
notes: also called FOLR1-2.1
B3: anti-FOLR1 antibody 353.9-21 (antibody, mouse IgG1, kappa, V domains shown)
VH: QVQLQQSGPDLVKPGASVRISCKASGFTFTNYYIHWVKQRPGQGLEWIGWIYPENVNVRYNDKFKAKATLTADKSSSTAYMQLSSLTSEDSAVYFCARRGIYYYSPYAMDYWGQGASVTVSS
VL: B2 VL with I15L, S26T
notes: Sister subclone of 9.20; also called clone 9.21
B4: muFRIHC5-7 (anti-FOLR1 antibody 353.5-7) (antibody, mouse IgG1, kappa, V domains shown)
VH: B2 VH with L11V, S32Y, K39Q, E54G, L56F, T58V, Q59E, S79V, Y103F, H111Y
VL: B2 VL with S26T, K27E, I111V
notes: Murine monoclonal; also called clone 5.7

Tests used:
[1] = target: T1, recombinant human FOLR1 (non-treated) (human, UniProt P15328 25-233, limits assumed, N-glycosylated (non-treated)); experiment: ELISA, FOLR1 immobilized on the plate, hrp goat anti-human secondary
T1 construct: also called huFOLR1 recombinant protein; non-treated FOLR1
T1 sequence (P15328 25-233 limits assumed): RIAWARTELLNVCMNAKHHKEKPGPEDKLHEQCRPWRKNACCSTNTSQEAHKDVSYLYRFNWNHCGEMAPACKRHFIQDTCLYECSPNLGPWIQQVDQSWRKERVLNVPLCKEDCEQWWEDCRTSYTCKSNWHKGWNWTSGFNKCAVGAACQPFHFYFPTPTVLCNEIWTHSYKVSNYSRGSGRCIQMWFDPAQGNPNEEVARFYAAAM
Description: (§1) Human FOLR1 has three potential sites for N-glycosylation at positions 69, 161 and 201 (UniProt), and, as reported in literature, all three sites are glycosylated. To characterize the nature of the epitopes recognized by the anti-FOLR1 antibodies described herein, binding experiments were performed with deglycosylated and non-treated receptor. Of the generated anti-FOLR1 clones, only clone 2.1 was used in the study because, based on the sequencing data, the clones are related and likely to bind to the same epitope. In addition to clone 2.1, two other anti-FOLR1 antibodies were included: huMov19 (WO 2011/106528) and clone BN3.2 (Leica). In order to deglycosylate FOLR1, recombinant human FOLR1 or lysates of FOLR1-positive KB or Igrov-1 cells were treated with a mixture of deglycosylation enzymes (Enzymatic DeGlycoMX Kit, QA-bio) according to the Manufacturer's protocol. Then, samples of treated and non-treated FOLR1 were used in ELISA and Western blot analysis. […] After 2 h incubation, antibody-antigen complexes were detected with hip-labeled goat anti-human (for huMov19) or anti-murine (for 2.1) secondary antibody (FIG. 7). […] The membrane was incubated with the anti-FOLR1 antibodies 2.1, huMov19, or BN3.2, and the antigen-antibody complexes were detected with the appropriate secondary anti-murine or anti human antibodies conjugated with horse-radish peroxidase (FIG. 8).

[2] = target: T2, human folate receptor 1 (FOLR1) on cells, in cell lysates and in FFPE tissues (human, UniProt P15328 25-234, N-glycosylated at positions 69, 161 and 201); experiment: Western blot of cell lysates
T2 construct: also called folate receptor alpha; FR-alpha
T2 sequence (P15328 25-234): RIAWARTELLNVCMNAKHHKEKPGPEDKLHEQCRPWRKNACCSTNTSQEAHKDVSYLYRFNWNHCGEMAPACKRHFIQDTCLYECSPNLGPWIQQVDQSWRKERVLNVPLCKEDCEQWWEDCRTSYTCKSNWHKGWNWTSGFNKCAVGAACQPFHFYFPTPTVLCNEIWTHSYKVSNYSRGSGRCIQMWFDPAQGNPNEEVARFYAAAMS
Description: as §1

[3] = target: T3, deglycosylated recombinant human FOLR1 (human, UniProt P15328 25-233, limits assumed, glycans removed with a mixture of deglycosylation enzymes (Enzymatic DeGlycoMX Kit)); experiment: ELISA, deglycosylated FOLR1 immobilized on the plate, hrp goat anti-human secondary
T3 construct: also called deglycosylated FOLR1
T3 sequence (P15328 25-233 limits assumed): as the sequence (P15328 25-233 limits assumed) above
Description: as §1

[4] = target: T4, deglycosylated human FOLR1 in lysates of KB and Igrov-1 cells (human, UniProt P15328 25-234, glycans removed with a mixture of deglycosylation enzymes (Enzymatic DeGlycoMX Kit)); experiment: Western blot of enzymatically deglycosylated cell lysates
T4 construct: Endogenous FOLR1 of cell lysates after enzymatic deglycosylation; also called deglycosylated lysates
T4 sequence (P15328 25-234): as the sequence (P15328 25-234) above
Description: as §1

[5] = target: T5, recombinant FOLR2-His (R&D Systems) (UniProt P14207 17-228, limits assumed); experiment: ELISA, FOLR2-His immobilized on Ni-NTA plate
T5 construct: not shown: His tag
T5 sequence (P14207 17-228 limits assumed): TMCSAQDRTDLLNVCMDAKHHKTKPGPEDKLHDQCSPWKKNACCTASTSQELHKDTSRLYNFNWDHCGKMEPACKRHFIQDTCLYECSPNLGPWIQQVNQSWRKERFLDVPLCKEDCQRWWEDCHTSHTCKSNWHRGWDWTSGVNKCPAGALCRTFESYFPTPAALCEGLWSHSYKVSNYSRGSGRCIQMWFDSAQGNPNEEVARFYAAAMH
Description: (§2) FOLR1 is a member of Folate Receptor family. Cross-reactivity of the anti-FOLR1 antibodies with the other members of the family FOLR2 and FOLR3 was assayed by ELISA. Recombinant protein FOLR2-His or FOLR3-His (R&D Systems) was immobilized to Ni-NTA plates (QIAGEN) and the anti-FOLR1 antibodies were added to the plates and incubated for 2 hours at room temperature. As positive controls for FOLR2 and FOLR3 ELISA polyclonal anti-FOLR2 and FOLR3 antibodies (R&D systems), respectively, were used. The formed antibody-antigen complexes were detected with hip-labeled goat anti-murine secondary antibody.

[6] = target: T6, recombinant human FOLR1-murine IgG2a Fc protein (human; murine, UniProt P15328 25-234, limits assumed); experiment: ELISA, recombinant human FOLR1-murine Fc2a immobilized on the plate, hrp goat anti-murine secondary
T6 construct: also called humanFOLR1-murine Fc2a; FOLR1-Fc; not shown: murine IgG2a Fc
T6 sequence (P15328 25-234 limits assumed): as the sequence (P15328 25-234) above
Description: The binding affinity of the anti-FOLR1 antibodies was examined by ELISA where recombinant humanFOLR1-murine Fc2a protein was used as the antigen. The recombinant protein was immobilized on microtiter plates, and the antibodies were added at a range of concentrations to the plates. The plates were incubated for two hours at room temperature, washed with PBS supplemented with 0.05% Tween-20, and incubated with hrp-labeled goat anti-murine secondary antibody for one hour at room temperature. The plates were washed with PBS/Tween-20 again, and bound hrp-conjugated antibody was detected by adding the hrp-substrate TMB (Bio-FX).

[7] = target: T7, recombinant FOLR3-His (R&D Systems) (UniProt P41439 23-245, limits assumed); experiment: ELISA, FOLR3-His immobilized on Ni-NTA plate
T7 construct: not shown: His tag
T7 sequence (P41439 23-245 limits assumed): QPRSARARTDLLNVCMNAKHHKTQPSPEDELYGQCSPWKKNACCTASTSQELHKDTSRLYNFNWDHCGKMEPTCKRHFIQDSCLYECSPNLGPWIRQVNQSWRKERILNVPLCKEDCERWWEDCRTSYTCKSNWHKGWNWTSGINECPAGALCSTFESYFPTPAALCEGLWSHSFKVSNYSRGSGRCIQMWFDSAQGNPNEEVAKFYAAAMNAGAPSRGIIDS
Description: as §2

Binder | binding result [1] | binding result [2] | binding result [3] | binding result [4] | binding result [5] | EC50 [6] [nM] | binding result [7]
B1 | binds | binds | binds | binds |  |  | 
B2 |  |  |  |  | no binding (tested: 10^-8 M) | 0.5 | no binding (tested: about 3x10^-8 M)
B3 |  |  |  |  | no binding (tested: 10^-8 M) |  | no binding (tested: about 3x10^-8 M)
B4 |  |  |  |  | no binding (tested: 10^-8 M) |  | no binding (tested: about 3x10^-8 M)
